The target of this test is Bicistronic receptor WU76UB CD3E_CD3E_2B4_CD3Z_CD3G_CD3G_OX40. Put plainly: cell-based or functional assay.

The record followed here is patent US20240173407A1.

Sequence of Bicistronic receptor WU76UB CD3E_CD3E_2B4_CD3Z_CD3G_CD3G_OX40 (chain, as listed by the source limits assumed, form in doubt): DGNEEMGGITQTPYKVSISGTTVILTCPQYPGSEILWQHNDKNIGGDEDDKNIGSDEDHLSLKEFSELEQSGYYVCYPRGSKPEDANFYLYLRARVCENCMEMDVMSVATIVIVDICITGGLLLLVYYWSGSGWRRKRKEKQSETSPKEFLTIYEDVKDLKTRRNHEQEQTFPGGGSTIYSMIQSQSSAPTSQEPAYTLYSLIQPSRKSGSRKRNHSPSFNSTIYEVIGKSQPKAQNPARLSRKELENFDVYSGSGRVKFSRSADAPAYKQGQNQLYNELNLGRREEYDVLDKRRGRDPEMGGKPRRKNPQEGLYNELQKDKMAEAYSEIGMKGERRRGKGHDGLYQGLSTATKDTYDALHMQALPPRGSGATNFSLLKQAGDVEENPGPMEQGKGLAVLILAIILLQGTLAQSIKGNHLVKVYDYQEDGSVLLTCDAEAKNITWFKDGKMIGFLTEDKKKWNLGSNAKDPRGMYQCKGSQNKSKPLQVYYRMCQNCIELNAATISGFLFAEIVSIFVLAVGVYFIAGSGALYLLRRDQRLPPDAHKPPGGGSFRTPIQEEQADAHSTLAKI

Substance Blinatumomab (bispecific antibody) had a fold change in p-S6 levels of 3 fold.
